B1: ANC-2H01/600 (amino-terminal part of the initial ANC-2H01 plus half of the first zinc finger, fused to the GAL4-AD in pGAD10) (other, not shown: large carriers)
chain: IADGFNGIFSDHCYSVCSMRQPDLKYFDNKDDDSDTETSNDLPKFADGIKARNRNQNYLVPSPVLRILDHTAFSTEKSADIVICDEECDSPESVNQQTQEESPIEVHTAEDVPIAVEVHAISEDYDIETENNSSESLQDQTDEEPPAKLCKILDKSQALNVTAQQKWPLLRANSSGLYKCELCEFNSKY
notes: whole entry named, only the stated part stood in the assay
B2: ANC-2H01/BamHI (amino-terminal part of the ANC-2H01 clone plus two of the nine zinc fingers, fused to the GAL4-AD in pGAD10) (other, not shown: large carriers)
chain: IADGFNGIFSDHCYSVCSMRQPDLKYFDNKDDDSDTETSNDLPKFADGIKARNRNQNYLVPSPVLRILDHTAFSTEKSADIVICDEECDSPESVNQQTQEESPIEVHTAEDVPIAVEVHAISEDYDIETENNSSESLQDQTDEEPPAKLCKILDKSQALNVTAQQKWPLLRANSSGLYKCELCEFNSKYFSDLKQHMILKHKRTDSNVCRVCKESFSTNMLLIEHAKLHEEDP
notes: 700-bp BamHI fragment of the initial clone; only the stated part stood in the assay; also called pGAD10ANC-2H01/BamHI
B3: ANC-2H01/500 (amino-terminal part of ANC-2H01 lacking any functional zinc finger, fused to the GAL4-AD in pGAD10) (other, not shown: large carriers)
chain: IADGFNGIFSDHCYSVCSMRQPDLKYFDNKDDDSDTETSNDLPKFADGIKARNRNQNYLVPSPVLRILDHTAFSTEKSADIVICDEECDSPESVNQQTQEESPIEVHTAEDVPIAVEVHAISEDYDIETENNSSESLQDQTDEEPPAKLCKILDKSQALNVTAQQKW
notes: as for B1
B4: ANC-2H01 initial two-hybrid clone (part of ANC-2H01 fused to the GAL4-AD, plasmid pGAD10ANC2H01) (other, not shown: large carriers)
chain: IADGFNGIFSDHCYSVCSMRQPDLKYFDNKDDDSDTETSNDLPKFADGIKARNRNQNYLVPSPVLRILDHTAFSTEKSADIVICDEECDSPESVNQQTQEESPIEVHTAEDVPIAVEVHAISEDYDIETENNSSESLQDQTDEEPPAKLCKILDKSQALNVTAQQKWPLLRANSSGLYKCELCEFNSKYFSDLKQHMILKHKRTDSNVCRVCKESFSTNMLLIEHAKLHEEDPYICKYCDYKTVIFENLSQHIADTHFSDHLYWCEQCDVQFSSSSELYLHFQEHSCDEQYLCQFCEHETNDPEDLHSHVVNEHACKLIELSDKYNNGEHGQYSLLSKITFDKCKNFFVCQVCGFRSRLHTNVNRHVAIEHTKIFPHVCDDCGKGFSSMLEYCKHLNSHLSEGIYLCQYCEYSTGQIEDLKIHLDFKHSADLPHKCSDCLMRFGNERELISHLPVHETT
notes: 27-485 is derived from 459 of 485 residues; also called ANC-2H01 clone; initial ANC-2H01 two-hybrid clone
B5: zinc fingers 1 to 5 of ANC-2H01 fused to the GAL4-AD (plasmid pACT2ANC2H01ZF1-5) (other, not shown: large carriers)
chain: LYKCELCEFNSKYFSDLKQHMILKHKRTDSNVCRVCKESFSTNMLLIEHAKLHEEDPYICKYCDYKTVIFENLSQHIADTHFSDHLYWCEQCDVQFSSSSELYLHFQEHSCDEQYLCQFCEHETNDPEDLHSHVVNEHACKLIELSDK
B6: zinc fingers 1 to 3 of ANC-2H01 fused to the GAL4-AD (plasmid pACT2ANC2H01ZF1-3) (other, not shown: large carriers)
chain: LYKCELCEFNSKYFSDLKQHMILKHKRTDSNVCRVCKESFSTNMLLIEHAKLHEEDPYICKYCDYKTVIFENLSQHIADTHFSDHL
B7: zinc fingers 4 to 5 of ANC-2H01 fused to the GAL4-AD (plasmid pACT2ANC2H01-ZF4-5) (other, not shown: large carriers)
chain: LYWCEQCDVQFSSSSELYLHFQEHSCDEQYLCQFCEHETNDPEDLHSHVVNEHACKLIELSDK
notes: also called pACT2ANC2H01Zn4-5

Target: T1, human αN-catenin fused to the GAL4-DBD in pGBT9 (plasmid pGBT9ANCTN) (human, UniProt P04386 1-147; P26232 4-905, limits assumed)
T1 construct: Construction of pGBT9ANCTN is not described; also called pGBT9αNCTN; pGBT9-αNCTN
Experiment: yeast two-hybrid (FIG. 4)

binding result	Binder
no binding	B1
no binding	B2
no binding	B3

Target: αN-catenin residues 4-193 fused to the GAL4-DBD (plasmid pGBT9ANCTN(EcoRI-BamHI)) (human, UniProt P04386 1-147; P26232 4-193)
Experiment: yeast two-hybrid (FIG. 4)

binding result	Binder
no binding	B1
no binding	B2
no binding	B3

Target: αN-catenin residues 4-535 fused to the GAL4-DBD (plasmid pGBT9ANCTN(EcoRI-PstI)) (human, UniProt P04386 1-147; P26232 4-535)
Experiment: yeast two-hybrid (FIG. 4)

binding result	Binder
no binding	B1
no binding	B2
no binding	B3

Target: αN-catenin residues 535-787 fused to the GAL4-DBD (plasmid pGBT9ANCTN(PstI 1618-2375)) (human, UniProt P04386 1-147; P26232 535-787)
Experiment: yeast two-hybrid (FIG. 4)

binding result	Binder
no binding	B1
no binding	B2
no binding	B3

Target: T2, αN-catenin residues 543-906 fused to the GAL4-DBD (plasmid pGBT9ANCTN-(XhoI-SalI)) (human, UniProt P04386 1-147; P26232 543-906)
T2 construct: the UniProt canonical isoform differs near the C-terminus
Experiment: yeast two-hybrid (FIG. 4)

binding result	Binder
no binding	B4
no binding	B1
no binding	B2
no binding	B3

Target: T3, human αE-catenin fused to the GAL4-DBD (plasmid pGBT9αECTN) (human, UniProt P04386 1-147; P35221 1-906, limits assumed)
T3 construct: also called full-length αE-catenin
Experiment: yeast two-hybrid, strain HF7c (FIG. 4)

binding result	Binder
no binding	B4
no binding	B1
no binding	B2
no binding	B3

Target: T1, human αN-catenin fused to the GAL4-DBD …
Experiment: yeast two-hybrid, strain Y190 (FIG. 16)

binding result	Binder
no binding	B5
no binding	B6
no binding	B7

Reference: US6767720 (VLAAMS INTERUNIVERSITAIR INSTITUUT VOOR BIOTECHNOLOGIE VZW, dated 2004)
